Consider one molecule from patent CN117567625A (INST MED BIOTECHNOLOGY CAMS, dated 2024).

The target of the assay is T1, Claudin18.2 on 人胃癌NUGC4细胞 (human, UniProt P56856-2 1-261).
T1 construct: whole, on cells
T1 sequence (looked up): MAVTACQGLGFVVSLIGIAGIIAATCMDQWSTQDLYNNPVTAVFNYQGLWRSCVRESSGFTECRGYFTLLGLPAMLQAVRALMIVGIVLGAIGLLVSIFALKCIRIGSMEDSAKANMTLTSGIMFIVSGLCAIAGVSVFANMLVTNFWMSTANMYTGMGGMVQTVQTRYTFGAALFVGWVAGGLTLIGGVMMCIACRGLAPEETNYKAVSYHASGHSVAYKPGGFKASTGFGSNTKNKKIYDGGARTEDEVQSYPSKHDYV
In words: flow cytometry on NUGC4 cells, anti-mouse IgG Fc-FITC. A general note: In flow cytometry, cells or beads pass a laser one at a time.

B1: 抗Claudin18.2小鼠单克隆抗体m1D6 (antibody, V domains shown)
VH: QVQLQQPGPELVMPGASVKLSCKASGYTFTSYRMHWVKQRPGQGLEWIGEIDPSNSYTNYNQNFRGRSTLTVDKSSSTAYMQLSSLTSGDSAVYYCARLGRGNTLGYWGQGTSVTVSS
VL: DIVMTQSPSSLTVTAGEKVTVGCKSSQSLLNSGNQKNYLTWYQQKPGQPPKLLIYWASTRESGVPDRFTGSGSGTDFTLTIRSVQAEDLAVYYCQNGYSYPFTFGSGTKLEIKR
notes: Both printed entries appear to start with a leader peptide ahead of the variable region; For in vivo imaging the antibody was labelled with Dylight680
In the case of B1, the binding result was “binds”.
